Results taken from patent publication EP4538294A1 (Shandong Simcere Biopharmaceutical Co., Ltd., dated 2025).

Tests used:
[1] = target: T1, human BCMA on Flp-inCHO-human BCMA cells (human, UniProt Q02223 1-184); test: FACS, Flp-inCHO-human BCMA cells
T1 construct: whole, on cells
T1 sequence (looked up): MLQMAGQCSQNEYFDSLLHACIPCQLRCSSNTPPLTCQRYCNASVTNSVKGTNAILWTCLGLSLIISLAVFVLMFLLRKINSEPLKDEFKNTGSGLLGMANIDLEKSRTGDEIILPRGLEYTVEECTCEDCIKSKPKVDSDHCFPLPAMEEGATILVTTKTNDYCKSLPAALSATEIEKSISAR

[2] = target: T2, human CD3 on Jurkat cells and on activated human PBMC (human, UniProt P07766 23-207; P04234 22-171); test: FACS, Jurkat cells
T2 construct: whole, on cells; Endogenous CD3 of the T cell receptor complex on cells
T2 sequence (P07766 23-207, chain 1 of 2): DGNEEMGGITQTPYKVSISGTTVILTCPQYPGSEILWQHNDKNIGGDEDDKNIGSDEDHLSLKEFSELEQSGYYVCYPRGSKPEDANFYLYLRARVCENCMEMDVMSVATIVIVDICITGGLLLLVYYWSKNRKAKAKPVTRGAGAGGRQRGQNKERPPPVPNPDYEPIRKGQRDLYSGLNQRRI
T2 sequence (P04234 22-171, chain 2 of 2): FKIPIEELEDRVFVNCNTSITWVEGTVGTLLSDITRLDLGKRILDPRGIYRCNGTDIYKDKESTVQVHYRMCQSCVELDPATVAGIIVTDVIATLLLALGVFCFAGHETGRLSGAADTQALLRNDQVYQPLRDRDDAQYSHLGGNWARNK

[3] = target: T2, human CD3 on Jurkat cells and on …; test: FACS, activated human PBMC
[4] = target: T3, human GPRC5D on CHOK1-human GPRC5D cells (human, UniProt Q9NZD1 1-345); test: FACS, CHOK1-human GPRC5D cells
T3 construct: whole, on cells
T3 sequence (Q9NZD1 whole entry): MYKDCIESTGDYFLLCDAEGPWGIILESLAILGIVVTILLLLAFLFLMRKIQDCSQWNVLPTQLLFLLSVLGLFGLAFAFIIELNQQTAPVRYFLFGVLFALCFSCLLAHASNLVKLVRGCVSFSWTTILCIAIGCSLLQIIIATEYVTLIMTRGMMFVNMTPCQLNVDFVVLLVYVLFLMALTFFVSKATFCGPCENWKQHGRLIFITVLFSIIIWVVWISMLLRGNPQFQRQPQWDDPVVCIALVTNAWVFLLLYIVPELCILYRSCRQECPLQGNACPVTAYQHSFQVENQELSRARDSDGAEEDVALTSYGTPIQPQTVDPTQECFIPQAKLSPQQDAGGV

[5] = target: T4, monkey CD3 on activated monkey PBMC (monkey); test: FACS, activated monkey PBMC
T4 construct: whole, on cells
T4 sequence (Q95LI5 22-198): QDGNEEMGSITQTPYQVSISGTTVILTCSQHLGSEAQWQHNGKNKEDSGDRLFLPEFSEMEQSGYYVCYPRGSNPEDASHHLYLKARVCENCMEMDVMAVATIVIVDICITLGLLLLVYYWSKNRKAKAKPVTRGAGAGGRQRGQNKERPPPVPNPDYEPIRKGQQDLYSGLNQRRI

[6] = target: T1, human BCMA on Flp-inCHO-human BCMA cells; test: FACS, Flp-inCHO-human BCMA cells; remark: listed apart in the source

B1: Tri-49 (trispecific antibody, V domains shown)
VHH: EVQLVESGGGLVQPGGSLRLSCAASESISSIHIMAWYRQAPGKQRELVAGIRNDGSTVYVDSVKGRFTISRDNAKNSLYLQMNSLRAEDTAVYYCNADQGFGSYSEWERRSRWGQGTTVTVSS
VH 1: EVQLVQSGAEVKKPGSSVKVSCKASGYTFTSYGISWVRQAPGQGLEWMGEIYPRSGNTYYNEKFKGRVTLTADKSTSTAYMELSSLRSEDTAVYYCARGRAYGRNYPMDYWGQGTTVTVSS
VL 1: EIVLTQSPATLSLSPGERATLSCRASQSIGTSIHWYQQKPGQSPRLLIKYASESISGIPARFSGSGSGTDFTLTISSLEPEDFAVYYCQQSNSWPYTFGGGTKVEIK
VH 2: EVQLVESGGGVVQPGRSLRLSCAASGFTFTDYYMSWVRQAPGKGLEWVAMSRNKAKGHTIEYSSSVKGRFTISRDNSKNTLYLQMNSLRAEDTAVYYCARDTYESYDGYFDVWGQGTTVTVSS
VL 2: DIVMTQSPDSLAVSLGERATINCKSSQSLFNSRSRKNYLAWYQQKPGQTPKLLIYWASIRESGVPDRFSGSGSGTDFTLTISSLQAEDVAVYYCKQSYYLYTFGQGTKLEIK
For B1, the EC50 [1] was 1.34 nM, the EC50 [2] was 157 nM and the “Maximum mean fluorescence intensity” value [2] was 795. For the same binder, the EC50 [3] was 31.8 nM, the “Maximum mean fluorescence intensity” value [3] was 1730 and the EC50 [4] was 2.75 nM. For the same binder, the EC50 [5] was 59.4 nM and the “Maximum mean fluorescence intensity” value [5] was 1380.

B2: REGN5459-anti-BCMA-hIgG1 (antibody, V domains shown)
VH: EVQLVESGGGLVQPGGSLRLSCAASGFTFSNFWMTWVRQAPGKGLEWVANMNQDGSEKYYVDSVKGRFTISRDNAKSSLYLQMNSLRAEDTAVYYCARDREYCISTSCYDDFDYWGQGTLVTVSS
VL: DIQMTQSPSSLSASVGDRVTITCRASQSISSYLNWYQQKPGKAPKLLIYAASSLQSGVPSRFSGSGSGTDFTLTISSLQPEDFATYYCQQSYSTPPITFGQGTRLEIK
B2: binds [6].
